In this experiment the test system is 9,184 individual recombinant human proteins. The experiment in a line: ProtoArray Human Protein Microarrays v5.0 cross-reactivity profiling. The following applies: mAb diluted 1:500. In kind it is binding. As to the method: Proteomic profiling of mAb AN-17 antibody reactivity was performed using Invitrogen™ ProtoArray™ Human Protein Microarrays v5.0 (ThermoFisher Scientific, Waltham MA), comprising 9,184 individual recombinant human proteins spotted in duplicate. All procedures were carried out as previously described (PMID: 29141850; Wilson et al. Cancer Epidemiol Biomarkers Prev. 2018; 27(2):183-192). Arrays were probed using mAb AN-17 diluted 1:500 in wash buffer. Fluorescent detection antibody against IgG heavy and light chains was from Abcam (#ab150119 Goat Anti-Mouse IgG H&L Alexa Fluor® 647, preadsorbed) diluted to […] in wash buffer prior to use. A single array incubated with detection antibody alone was used as a control for non-specific antibody binding.
Array imaging was performed using a Fuji FLA5100 multi wavelength scanner as described (PMID: 29141850; Wilson et al. Cancer Epidemiol Biomarkers Prev. 2018; 27(2):183-192), using a 635 nm excitation laser and dual band pass Cy3/Cy5 filter. Images were acquired at […], with PMT set at 1000V. Array alignment, feature extraction and data normalization were performed as previously described (PMID: 29141850; Wilson et al. Cancer Epidemiol Biomarkers Prev. 2018; 27(2):183-192). Array co-ordinates were obtained from the manufacturer-provided downloadable .GAL files (ThermoFisher Scientific).

The source of these data is patent US12673985B2, “Method for the treatment or prophylaxis of cancer by targeting the extracellular portion of keratin 14 (KRT14) residing on cancer cells” (Hudson Institute of Medical Research, priority 2019, dated 2026).

“Also recorded” adds a separate entry of the source.

B1: mAb AN-17: monoclonal anti-KRT14 antibody; heavy chain variable region SEQ ID NO:3, light chain variable region SEQ ID NO:5 (clone AN-17A RG4.E5b.A7.B4) (antibody, listed as Mus musculus, V domains shown)
VH: QVQLKESGPGLVAPSQSLSITCTVSGFSLSRYSVHWVRQPPGKGLEWLGMIWGGGSTDYNSALKSRLSISKDNSKSQVFLKMNSLQTDDTAMYYCARKDYGYSYFDYWGQGTTLTVSS
VL: DVLMTQTPLSLPVSLGDQASISCRSSQSIVHSNGNTYLEWYLQKPGQSPKLLIYKVSNRFSGVPDRFSGSGSGTDFTLKISRVEAEDLGVYYCFQGSHVPFTFGSGTKLEIKRADAAPTVS
For B1, the “cross-reactivity with protein antigens on arrays” value was “did not react with any of the proteins present on the arrays tested; also recorded: No cross-reactivity was evident”. Besides, where the note is “listed as mAB AN-17”, the “cross-reactivity with protein antigens on arrays” value is reported as “did not react with any of the antigens present on the array, including several related keratin proteins”.
